Publication PMC7227486

Key:
[1] = biological target: infectious CHIKV particles (strain 181/25) (chikungunya virus strain 181/25); test: cryo-EM structure
[2] = biological target: CHIKV virus-like particles (strain 37997), produced from C-E3-E2-6K-E1 (chikungunya virus strain 37997); test: cryo-EM structure
[3] = biological target: CHIKV virus-like particles (strain 37997), produced from C-E3-E2-6K-E1 (chikungunya virus strain 37997); test: SPR

| Substance | stoichiometry N (Mxra8 proteins per particle) [1] | stoichiometry N (Mxra8 molecules per virion) [2] | KD, high affinity site (kinetically derived, two-site model) [3] | KD, lower affinity sites (kinetically derived, two-site model) [3] |
| --- | --- | --- | --- | --- |
| mammalian cell-generated murine Mxra8 (residues 23-336), cleaved from Mxra8-HRV-Fc (from UniProt Q9DBV4 23-336) (domain or fragment) | 60 | 240 | – | – |
| recombinant murine Mxra8 (soluble; preparation not stated for this experiment) (from UniProt Q9DBV4 20-340) (domain or fragment) | – | – | 84 nM | 270 nM |
